From publication PMC11658451, “The human Dicer helicase domain is capable of ATP hydrolysis and single-stranded nucleic acid binding” (BMC Biology, 2024)

How the values were obtained:
WT hDicer [1] = target: T1, WT hDicer (Homo sapiens, UniProt Q9UPY3, K70A); assay: EMSA with radiolabelled ATP; conditions: labelled compound ([γ-32P]-ATP, 2 nM); 150 mM NaCl, 50 mM Tris-HCl pH 7.5, 2.5 mM MgCl2, 4 °C, no RNA; Walker A mutant; weak binding, Kd could not be determined
T1 construct: gene DICER1; full-length, 1922 aa, ~220 kDa; expressed in human 293T NoDice cells and purified; K70A variant from Addgene plasmid 41589
T1 sequence (Q9UPY3 whole entry K70A): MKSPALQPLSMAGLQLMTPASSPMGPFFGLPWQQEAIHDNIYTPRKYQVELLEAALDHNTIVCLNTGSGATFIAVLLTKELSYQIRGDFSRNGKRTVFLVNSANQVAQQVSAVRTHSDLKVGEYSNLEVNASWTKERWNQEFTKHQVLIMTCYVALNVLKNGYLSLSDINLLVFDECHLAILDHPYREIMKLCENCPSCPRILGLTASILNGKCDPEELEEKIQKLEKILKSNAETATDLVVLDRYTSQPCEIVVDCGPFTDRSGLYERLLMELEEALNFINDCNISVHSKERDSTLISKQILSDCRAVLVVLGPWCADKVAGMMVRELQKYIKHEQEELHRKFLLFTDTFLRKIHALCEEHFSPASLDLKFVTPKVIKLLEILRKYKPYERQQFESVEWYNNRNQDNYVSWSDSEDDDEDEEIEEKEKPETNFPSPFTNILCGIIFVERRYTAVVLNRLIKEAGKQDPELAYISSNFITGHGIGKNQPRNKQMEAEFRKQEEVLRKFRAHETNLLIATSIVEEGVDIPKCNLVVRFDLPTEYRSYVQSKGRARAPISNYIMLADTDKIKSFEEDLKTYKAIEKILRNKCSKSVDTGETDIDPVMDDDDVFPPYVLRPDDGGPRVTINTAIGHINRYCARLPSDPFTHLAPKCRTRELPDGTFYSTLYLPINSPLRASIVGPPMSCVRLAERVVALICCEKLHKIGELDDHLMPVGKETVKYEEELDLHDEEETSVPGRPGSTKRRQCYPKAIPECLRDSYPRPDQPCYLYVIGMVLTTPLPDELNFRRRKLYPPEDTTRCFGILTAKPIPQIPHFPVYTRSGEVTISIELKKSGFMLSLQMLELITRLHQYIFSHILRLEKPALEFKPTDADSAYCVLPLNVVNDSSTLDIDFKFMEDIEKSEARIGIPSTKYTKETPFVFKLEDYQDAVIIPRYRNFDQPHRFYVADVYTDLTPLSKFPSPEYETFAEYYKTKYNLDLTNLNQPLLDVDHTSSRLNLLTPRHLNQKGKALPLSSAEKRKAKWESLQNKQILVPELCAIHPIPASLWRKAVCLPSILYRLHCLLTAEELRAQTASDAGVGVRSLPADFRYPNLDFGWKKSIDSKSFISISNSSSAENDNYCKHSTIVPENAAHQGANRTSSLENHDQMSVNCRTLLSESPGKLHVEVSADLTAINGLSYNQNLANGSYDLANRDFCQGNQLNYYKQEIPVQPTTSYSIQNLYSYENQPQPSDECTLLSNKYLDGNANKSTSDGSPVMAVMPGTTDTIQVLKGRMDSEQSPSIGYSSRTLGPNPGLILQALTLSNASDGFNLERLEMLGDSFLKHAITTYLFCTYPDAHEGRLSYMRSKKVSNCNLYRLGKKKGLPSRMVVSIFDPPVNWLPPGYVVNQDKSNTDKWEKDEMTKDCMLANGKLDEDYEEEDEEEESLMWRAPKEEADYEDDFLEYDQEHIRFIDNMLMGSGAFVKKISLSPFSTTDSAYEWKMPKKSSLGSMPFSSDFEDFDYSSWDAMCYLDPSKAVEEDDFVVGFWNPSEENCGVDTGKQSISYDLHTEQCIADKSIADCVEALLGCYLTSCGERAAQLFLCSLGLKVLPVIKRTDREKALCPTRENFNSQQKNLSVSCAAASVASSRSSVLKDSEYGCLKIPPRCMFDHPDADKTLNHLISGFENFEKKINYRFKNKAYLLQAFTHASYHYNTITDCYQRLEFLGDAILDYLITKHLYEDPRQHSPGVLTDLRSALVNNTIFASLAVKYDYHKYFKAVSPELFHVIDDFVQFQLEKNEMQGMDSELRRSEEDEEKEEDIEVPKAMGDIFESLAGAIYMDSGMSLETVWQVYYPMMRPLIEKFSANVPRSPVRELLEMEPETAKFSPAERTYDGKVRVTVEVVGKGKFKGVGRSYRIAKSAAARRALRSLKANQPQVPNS

HEL = target: T2, HEL (Homo sapiens, UniProt Q9UPY3); assay: ATP hydrolysis, PAGE of released […]; format: biochemical; conditions: labelled compound ([γ-32P]-ATP, 2 nM), HEL 2 nM (low turnover); 150 mM NaCl, 50 mM Tris-HCl pH 7.5, 2.5 mM MgCl2, 37 °C
T2 construct: gene DICER1; isolated helicase domain, residues 1-624, N-terminal His6 tag (pMCSG7), expressed in E. coli BL21Star, Ni-Sepharose purified
T2 sequence (Q9UPY3 1-624): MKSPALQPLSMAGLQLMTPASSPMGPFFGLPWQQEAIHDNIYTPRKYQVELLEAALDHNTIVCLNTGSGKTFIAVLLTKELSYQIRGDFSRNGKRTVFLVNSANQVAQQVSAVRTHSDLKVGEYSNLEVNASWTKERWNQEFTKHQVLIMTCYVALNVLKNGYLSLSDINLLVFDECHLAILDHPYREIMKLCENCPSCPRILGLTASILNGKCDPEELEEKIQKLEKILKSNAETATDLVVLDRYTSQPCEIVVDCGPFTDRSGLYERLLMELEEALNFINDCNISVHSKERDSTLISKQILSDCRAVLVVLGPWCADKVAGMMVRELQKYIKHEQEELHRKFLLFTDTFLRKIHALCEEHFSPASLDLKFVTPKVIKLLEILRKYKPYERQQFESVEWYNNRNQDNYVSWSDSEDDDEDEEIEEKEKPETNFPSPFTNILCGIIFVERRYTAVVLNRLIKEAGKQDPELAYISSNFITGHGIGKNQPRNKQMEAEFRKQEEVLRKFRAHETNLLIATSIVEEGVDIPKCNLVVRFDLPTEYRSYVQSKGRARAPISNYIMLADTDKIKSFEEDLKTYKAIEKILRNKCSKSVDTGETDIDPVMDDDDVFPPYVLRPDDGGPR

WT hDicer [2] = target: T3, WT hDicer (Homo sapiens, UniProt Q9UPY3); assay: EMSA with radiolabelled ATP; format: binding
T3 construct: gene DICER1; full-length, 1922 aa, ~220 kDa; expressed in human 293T NoDice cells and purified; K70A variant from Addgene plasmid 41589

[3] = target: T4, HEL (hDicer helicase domain) (Homo sapiens, UniProt Q9UPY3 1-624); assay: EMSA; distinct complex; 50 mM Tris-HCl pH 7.5, 150 mM NaCl; EMSA 15 min at room temperature (also 4 and 37 C), 5% native PAA gel in 1x TBE at 4 C; BLI 23 C; conditions: protein: recombinant; tags: N-terminal His6 (pMCSG7); label: 5' 32P (EMSA); none (BLI)
T4 sequence: T2 sequence (Q9UPY3 1-624)

[4] = target: T4, HEL (hDicer helicase domain); assay: EMSA; up to 95 uM HEL; 50 mM Tris-HCl pH 7.5, 150 mM NaCl; EMSA 15 min at room temperature (also 4 and 37 C), 5% native PAA gel in 1x TBE at 4 C; BLI 23 C; conditions: protein: recombinant, tags: N-terminal His6 (pMCSG7)
[5] = target: T4, HEL (hDicer helicase domain); assay: EMSA; room temperature; 50 mM Tris-HCl pH 7.5, 150 mM NaCl; EMSA 15 min at room temperature (also 4 and 37 C), 5% native PAA gel in 1x TBE at 4 C; BLI 23 C; conditions: protein: recombinant; tags: N-terminal His6 (pMCSG7); label: 5' 32P; unstructured
[6] = target: T4, HEL (hDicer helicase domain); assay: EMSA; 50 mM Tris-HCl pH 7.5, 150 mM NaCl; EMSA 15 min at room temperature (also 4 and 37 C), 5% native PAA gel in 1x TBE at 4 C; BLI 23 C; conditions: protein: recombinant; tags: N-terminal His6 (pMCSG7); label: 5' 32P (EMSA); none (BLI)
[7] = target: T4, HEL (hDicer helicase domain); assay: BLI; 23 C, HEL immobilized; 50 mM Tris-HCl pH 7.5, 150 mM NaCl; EMSA 15 min at room temperature (also 4 and 37 C), 5% native PAA gel in 1x TBE at 4 C; BLI 23 C; conditions: protein: recombinant; tags: N-terminal His6 (pMCSG7); label: 5' 32P (EMSA); none (BLI)
[8] = target: T4, HEL (hDicer helicase domain); assay: EMSA; 37 C; 50 mM Tris-HCl pH 7.5, 150 mM NaCl; EMSA 15 min at room temperature (also 4 and 37 C), 5% native PAA gel in 1x TBE at 4 C; BLI 23 C; conditions: protein: recombinant; tags: N-terminal His6 (pMCSG7); label: 5' 32P; unstructured
[9] = target: T4, HEL (hDicer helicase domain); assay: CD thermal melting; HEL transitions shift to 52 and 74 C; RNA transition 75 to 60 C; 50 mM Tris-HCl pH 7.5, 150 mM NaCl; EMSA 15 min at room temperature (also 4 and 37 C), 5% native PAA gel in 1x TBE at 4 C; BLI 23 C; conditions: protein: recombinant; tags: N-terminal His6 (pMCSG7); label: 5' 32P (EMSA); none (BLI); partly self-paired (predicted)
[10] = target: T4, HEL (hDicer helicase domain); assay: SAXS; 1:1 complex; 50 mM Tris-HCl pH 7.5, 150 mM NaCl; EMSA 15 min at room temperature (also 4 and 37 C), 5% native PAA gel in 1x TBE at 4 C; BLI 23 C; conditions: protein: recombinant, tags: N-terminal His6 (pMCSG7), label: 5' 32P (EMSA), hairpin
[11] = label: 5' 32P on one strand, 3' overhang 2 nt on each end
[12] = label: 5' 32P on one strand, blunt

With `Nc1ncnc2c1ncn2[C@@H]1O[C@H](COP(=O)(O)OP(=O)(O)OP(=O)(O)O)[C@@H](O)[C@H]1O` [ATP] the “EMSA with radiolabelled ATP” value (WT hDicer [1]) was “only weak ATP binding could be observed for hDicer_K70A”, the “ATP hydrolysis, PAGE of released 32Pi” value (HEL) was “ATP was hydrolyzed in reactions carried out with HEL (Fig. 2a) and WT hDicer” and the Kd (WT hDicer [2]) was about 0.085 µM.

GTGCATTGTAGTTGCATTGCATGTTCTGGTCA (ssDNA) [D32]: binds [3].

B1: dsDNA_over (dsDNA)
DNA 1: GTGCATTGTAGTTGCATTGCATGTTCTGGTCA
DNA 2: ACCAGAACATGCAATGCAACTACAATGCACAT
B1: no binding [4, 11].

B2: dsDNA_blunt (dsDNA)
DNA 1: B1 DNA 1
DNA 2: TGACCAGAACATGCAATGCAACTACAATGCAC
B2: no binding [4, 12].

GAATCTTAACGC (ssDNA) [D12]: no binding ([4]; label: 5' 32P).

ACACACACACACACACACACACACACACACACACACACACAC (ssRNA) [(AC)21]: binds [5].

B3: D56 (ssDNA)
DNA: GGGAGAATCATAAGTAGCGCAGTGAGTCGTTGTGCTGCCCATGTTAACAGTTAGCC
B3 showed a Kd [6] of about 7.4 µM and a Kd [7] of about 21 µM.

B4: dsRNA_blunt (dsRNA)
RNA 1: GUGCAUUGUAGUUGCAUUGCAUGUUCUGGUCA
RNA 2: UGACCAGAACAUGCAAUGCAACUACAAUGCAC
B4: no binding [4, 12].

B5: dsRNA_over (dsRNA)
RNA 1: B4 RNA 1
RNA 2: ACCAGAACAUGCAAUGCAACUACAAUGCACAU
B5: no binding [4, 11].

GAAUCUUAACGC (ssRNA) [R12]: no binding ([4]; label: 5' 32P).

CUCUCUCUCUCUCUCUCUCUCUCUCUCUCUCUCUCUCUCUCU (ssRNA) [(CU)21]: binds [8].

Molecule GGGAGAATCATAAGTAGCCTCCCCCCATGTTAACAGTTAGCC (ssDNA) [D42] has a Kd [6] of about 8.5 µM and a Kd [7] of about 22 µM.

GGGAGAAUCAUAAGUAGCCUCCCCCCAUGUUAACAGUUAGCC (ssRNA) [R42]: binds [9].

B6: R56 (ssRNA)
RNA: GGGAGAAUCAUAAGUAGCGCAGUGAGUCGUUGUGCUGCCCAUGUUAACAGUUAGCC
For B6, the Kd [7] was about 23 µM.

B7: pre-mir-21 (structured_RNA)
RNA: AGCUUAUCAGACUGAUGUUGACUGUUGAAUCUCAUGGCAACACCAGUCGAUGGGCUGU
B7: binds [10].

B8: pre-mir-16-1 (structured_RNA)
RNA: UAGCAGCACGUAAAUAUUGGCGUUAAGAUUCUAAAAUUAUCUCCAGUAUUAACUGUGCUGCUGAA
B8: binds ([10]; 9-nt apical loop).
